Here are results for one molecule from article PMC11268888, “Glycan-shielded homodimer structure and dynamical features of the canine distemper virus hemagglutinin relevant for viral entry and efficient vaccination” (eLife, 2024).

Test [1] concerns the target T1, ectodomain of human Nectin-4 (residues 1-333) (human, UniProt Q96NY8 32-333).
T1 construct: also called hNectin-4; PVRL4
T1 sequence (looked up): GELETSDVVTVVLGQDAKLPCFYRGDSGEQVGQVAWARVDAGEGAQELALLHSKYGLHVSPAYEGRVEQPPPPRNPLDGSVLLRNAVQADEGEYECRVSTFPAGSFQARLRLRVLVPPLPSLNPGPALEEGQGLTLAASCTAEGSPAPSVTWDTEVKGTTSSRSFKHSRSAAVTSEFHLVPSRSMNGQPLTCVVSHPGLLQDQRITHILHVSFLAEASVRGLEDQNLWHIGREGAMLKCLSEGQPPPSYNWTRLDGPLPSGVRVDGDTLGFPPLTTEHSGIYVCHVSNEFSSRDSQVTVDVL
In words: SPR; […]; HBS-EP (10 mM HEPES pH 7.4, 150 mM NaCl, 3 mM EDTA, 0.005% Surfactant P20); […]. The conditions noted are these: both partners purified.

Test [2] has as its target T2, ectodomain of dog Nectin-4 (residues 1-332) (dog).
T2 construct: also called dNectin-4; PVRL4
The test is described as above. The settings on record: both partners purified.

B1: MeV-H (measles virus hemagglutinin), wild-type strain (domain or fragment)
chain: DYDQYCADVAAEELMNALVNSTLLEARATNQFLAVSKGNCSGPTTIRGQFSNMSLSLLDLYLSRGYNVSSIVTMTSQGMYGGTYLVGKPNLSSKGSELSQLSMHRVFEVGVIRNPGLGAPVFHMTNYFEQPVSNDFSNCMVALGELKFAALCHREDSITIPYQGSGKGVSFQLVKLGVWKSPTDMRSWVPLSTDDPVIDRLYLSSHRGVIADNQAKWAVPTTRTDDKLRMETCFQQACKGKNQALCENPEWAPLKDNRIPSYGVLSVNLSLTVELKIKIASGFGPLITHGSGMDLYKTNHNNVYWLTIPPMKNLALGVINTLEWIPRFKVSPNLFTVPIKEAGEDCHAPTYLPAEVDGDVKLSSNLVILPGQDLQYVLATYDTSRVEHAVVYYVYSPSRSFSYFYPFRLPIKGVPIELQVECFTWDKKLWCRHFCVLADSESGGHITHSGMVGMGVSCTVTREDGTNRR
In general, Kd refers to the free concentration of one partner at which half of the binding sites on the other are occupied at equilibrium, for simple one-to-one binding. Read a high Kd as weaker binding. Turning to B1, in test [1], the Ka turned out to be 1.48e+06 M⁻¹ and binding was put at a Kd of 674 nM. In test [2], this molecule registered a Ka of 739000 M⁻¹ and a Kd of 1350 nM.
